Drawing on the Human Domainome abundance scans (Beltran et al. 2025), this text covers abundance fitness for 50 variants.

B1: Cyclin-F, residues 28 to 80; numbered along this chain, P41002 (parent)
chain: RNLTILSLPEDVLFHILKWLSVEDILAVRAVHSQLKDLVDNHASVWACASFQE

± gives the uncertainty stated by the source.

In this series the parent is B1. As to the kind of experiment: abundance fitness (aPCA) (normalised: wild type 0, dead -1); higher = more abundant; growth selection in yeast, the domain comes from the species named. To be noted: Homo sapiens.
In the case of RNLTILSLPEDVLFHILKWLSVEDILAVRAVHSTLKDLVDNHASVWACASFQE [Q34T], the abundance fitness was 0.004 ± 0.071.
As for RNLTILSLPEDVLFHILKWLSVEDILAVRAVHSYLKDLVDNHASVWACASFQE [Q34Y], the figure is -0.374 ± 0.12; as for RNLTILSLPEDVLFHILKWLSVEDILAVRAVHSNLKDLVDNHASVWACASFQE [Q34N], -0.417 ± 0.13.
As for RNLTILSLPEDVLFHILKWLSVEDILAVRAVHSSLKDLVDNHASVWACASFQE [Q34S], the figure is -0.06 ± 0.065; as for RNLTILSLPEDVLFHILKWLSVEDILAVRAVHSRLKDLVDNHASVWACASFQE [Q34R], 0.109 ± 0.062; as for RNLTILSLPEDVLFHILKWLSVEDILAVRAVHSVLKDLVDNHASVWACASFQE [Q34V], -0.126 ± 0.061.
As for RNLTILSLPEDVLFHILKWLSVEDILAVRAVHSPLKDLVDNHASVWACASFQE [Q34P], the figure is -0.807 ± 0.11; as for RNLTILSLPEDVLFHILKWLSVEDILAVRAVHSWLKDLVDNHASVWACASFQE [Q34W], -0.753 ± 0.1; as for RNLTILSLPEDVLFHILKWLSVEDILAVRAVHSQFKDLVDNHASVWACASFQE [L35F], -0.172 ± 0.16.
Take RNLTILSLPEDVLFHILKWLSVEDILAVRAVHSQIKDLVDNHASVWACASFQE [L35I]: the abundance fitness was -0.158 ± 0.22.
As for RNLTILSLPEDVLFHILKWLSVEDILAVRAVHSQHKDLVDNHASVWACASFQE [L35H], the figure is -0.831 ± 0.34; as for RNLTILSLPEDVLFHILKWLSVEDILAVRAVHSQYKDLVDNHASVWACASFQE [L35Y], -0.687 ± 0.41.
Under RNLTILSLPEDVLFHILKWLSVEDILAVRAVHSQQKDLVDNHASVWACASFQE [L35Q] stands -0.861 ± 0.18.
Consider RNLTILSLPEDVLFHILKWLSVEDILAVRAVHSQSKDLVDNHASVWACASFQE [L35S], for which the abundance fitness was -0.786 ± 0.14.
As for RNLTILSLPEDVLFHILKWLSVEDILAVRAVHSQAKDLVDNHASVWACASFQE [L35A], the figure is -0.772 ± 0.12; as for RNLTILSLPEDVLFHILKWLSVEDILAVRAVHSQPKDLVDNHASVWACASFQE [L35P], -0.842 ± 0.18.
Under RNLTILSLPEDVLFHILKWLSVEDILAVRAVHSQKKDLVDNHASVWACASFQE [L35K] stands -0.805 ± 0.2; under RNLTILSLPEDVLFHILKWLSVEDILAVRAVHSQWKDLVDNHASVWACASFQE [L35W], -0.567 ± 0.13.
As for RNLTILSLPEDVLFHILKWLSVEDILAVRAVHSQDKDLVDNHASVWACASFQE [L35D], the figure is -0.528 ± 0.29; as for RNLTILSLPEDVLFHILKWLSVEDILAVRAVHSQRKDLVDNHASVWACASFQE [L35R], -0.884 ± 0.14.
RNLTILSLPEDVLFHILKWLSVEDILAVRAVHSQEKDLVDNHASVWACASFQE [L35E]: the abundance fitness was -0.745 ± 0.14.
For the variant RNLTILSLPEDVLFHILKWLSVEDILAVRAVHSQCKDLVDNHASVWACASFQE [L35C], the abundance fitness was -0.643 ± 0.22.
Under RNLTILSLPEDVLFHILKWLSVEDILAVRAVHSQVKDLVDNHASVWACASFQE [L35V] stands -0.768 ± 0.11; under RNLTILSLPEDVLFHILKWLSVEDILAVRAVHSQLKKLVDNHASVWACASFQE [D37K], 0.356 ± 0.15.
As for RNLTILSLPEDVLFHILKWLSVEDILAVRAVHSQLKILVDNHASVWACASFQE [D37I], the figure is 0.228 ± 0.34; as for RNLTILSLPEDVLFHILKWLSVEDILAVRAVHSQLKCLVDNHASVWACASFQE [D37C], 0.012 ± 0.13; as for RNLTILSLPEDVLFHILKWLSVEDILAVRAVHSQLKLLVDNHASVWACASFQE [D37L], 0.03 ± 0.089.
Under RNLTILSLPEDVLFHILKWLSVEDILAVRAVHSQLKALVDNHASVWACASFQE [D37A] stands 0.027 ± 0.098; under RNLTILSLPEDVLFHILKWLSVEDILAVRAVHSQLKHLVDNHASVWACASFQE [D37H], -0.086 ± 0.17; under RNLTILSLPEDVLFHILKWLSVEDILAVRAVHSQLKFLVDNHASVWACASFQE [D37F], -0.222 ± 0.16.
In the case of RNLTILSLPEDVLFHILKWLSVEDILAVRAVHSQLKGLVDNHASVWACASFQE [D37G], the abundance fitness was -0.044 ± 0.085.
Under RNLTILSLPEDVLFHILKWLSVEDILAVRAVHSQLIDLVDNHASVWACASFQE [K36I] stands -0.986 ± 0.23.
Under RNLTILSLPEDVLFHILKWLSVEDILAVRAVHSQLLDLVDNHASVWACASFQE [K36L] stands -0.625 ± 0.12; under RNLTILSLPEDVLFHILKWLSVEDILAVRAVHSQLRDLVDNHASVWACASFQE [K36R], 0.054 ± 0.084.
Under RNLTILSLPEDVLFHILKWLSVEDILAVRAVHSQLTDLVDNHASVWACASFQE [K36T] stands -0.723 ± 0.16; under RNLTILSLPEDVLFHILKWLSVEDILAVRAVHSQLFDLVDNHASVWACASFQE [K36F], -0.811 ± 0.21; under RNLTILSLPEDVLFHILKWLSVEDILAVRAVHSQLDDLVDNHASVWACASFQE [K36D], -0.886 ± 0.28.
Consider RNLTILSLPEDVLFHILKWLSVEDILAVRAVHSQLCDLVDNHASVWACASFQE [K36C], for which the abundance fitness is -0.915 ± 0.18.
Under RNLTILSLPEDVLFHILKWLSVEDILAVRAVHSQLMDLVDNHASVWACASFQE [K36M] stands -0.932 ± 0.2; under RNLTILSLPEDVLFHILKWLSVEDILAVRAVHSQLNDLVDNHASVWACASFQE [K36N], -0.779 ± 0.23; under RNLTILSLPEDVLFHILKWLSVEDILAVRAVHSQLQDLVDNHASVWACASFQE [K36Q], -0.609 ± 0.23.
Consider RNLTILSLPEDVLFHILKWLSVEDILAVRAVHSQLWDLVDNHASVWACASFQE [K36W], for which the abundance fitness is -0.626 ± 0.22.
Under RNLTILSLPEDVLFHILKWLSVEDILAVRAVHSQLVDLVDNHASVWACASFQE [K36V] stands -0.785 ± 0.12; under RNLTILSLPEDVLFHILKWLSVEDILAVRAVHSQLEDLVDNHASVWACASFQE [K36E], -0.771 ± 0.21; under RNLTILSLPEDVLFHILKWLSVEDILAVRAVHSQLGDLVDNHASVWACASFQE [K36G], -0.891 ± 0.14.
Regarding RNLTILSLPEDVLFHILKWLSVEDILAVRAVHSQLADLVDNHASVWACASFQE [K36A], the abundance fitness is -0.561 ± 0.13.
Consider RNLTILSLPEDVLFHILKWLSVEDILAVRAVHSQLYDLVDNHASVWACASFQE [K36Y], for which the abundance fitness is -0.883 ± 0.23.
Under RNLTILSLPEDVLFHILKWLSVEDILAVRAVHSQLHDLVDNHASVWACASFQE [K36H] stands -0.445 ± 0.15.
Consider RNLTILSLPEDVLFHILKWLSVEDILAVRAVHSQLSDLVDNHASVWACASFQE [K36S], for which the abundance fitness was -0.788 ± 0.11.
As for RNLTILSLPEDVLFHILKWLSVEDILAVRAVHSQLPDLVDNHASVWACASFQE [K36P], the figure is -0.573 ± 0.16.
